Measurements published in patent publication US7648703.

Target: Ep-CAM antigen (human pan-carcinoma antigen) (human) (UniProt P16422)
Assay: antibody binding to HT29 adenocarcinoma cells after 15 minute incubation; drug-treated against control cells

Chain of UniProt P16422 (P16422 24-314): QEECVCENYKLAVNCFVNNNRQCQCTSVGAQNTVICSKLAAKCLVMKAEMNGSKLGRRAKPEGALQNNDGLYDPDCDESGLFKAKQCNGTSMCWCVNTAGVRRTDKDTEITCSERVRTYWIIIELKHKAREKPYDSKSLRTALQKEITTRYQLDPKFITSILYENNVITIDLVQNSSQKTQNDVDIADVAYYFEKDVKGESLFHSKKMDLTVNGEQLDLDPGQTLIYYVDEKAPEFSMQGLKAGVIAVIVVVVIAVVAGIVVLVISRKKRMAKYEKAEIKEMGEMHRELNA

increase in antibody binding (cells treated with Navelbine plus Cisplatin against control cells): 34% | increase in antibody binding (cells treated with Taxol against control cells): 8%
B1: Panorex (17-1A mouse monoclonal antibody) (antibody, INN chains, looked up, V domains shown)
VH: QVQLQQSGAELVRPGTSVKVSCKASGYAFTNYLIEWVKQRPGQGLEWIGVINPGSGGTNYNEKFKGKATLTADKSSSTAYMQLSSLTSDDSAVYFCARDGPWFAYWGQGTLVTVSA
VL: NIVMTQSPKSMSMSVGERVTLTCKASENVVTYVSWYQQKPEQSPKLLIYGASNRYTGVPDRFTGSGSATDFTLTISSVQAEDLADYHCGQGYSYPYTFGGGTKLEIK
